{"source": "patent US20030121063", "key": {"[1]": {"target": "L1 ENp (L1 ORF2 endonuclease domain) (Homo sapiens) (UniProt O00370)", "sequence (O00370 1-239)": "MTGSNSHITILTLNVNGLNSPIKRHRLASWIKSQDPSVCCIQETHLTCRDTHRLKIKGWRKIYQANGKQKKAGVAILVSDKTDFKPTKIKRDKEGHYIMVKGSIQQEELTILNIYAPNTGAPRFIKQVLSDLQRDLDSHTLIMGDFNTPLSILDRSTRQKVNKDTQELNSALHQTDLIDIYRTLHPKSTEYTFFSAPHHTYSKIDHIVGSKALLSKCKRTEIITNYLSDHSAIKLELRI", "assay": "cleavage_in_vitro", "details": "turnover number; Mg greatly preferred over Mn"}, "[2]": {"tested_on": "L1 ENp E43A E43A (Homo sapiens)", "assay": "cleavage_in_vitro", "details": "slightly leaky; 5 mM MgCl2"}}}
{"substance": "pBS plasmid, native", "values": [{"measurement": "activity (phosphodiester bond cleavages per hour)", "setting": "[1]", "result": 2}, {"measurement": "cleavage activity (fold less than wild type)", "setting": "[2]", "result": 20}]}
